From the DeepSol protein solubility set

experiment: soluble on expression in E. coli; label from the status in PepcDB or PDB records

| Sequence | soluble on expression in E. coli |
| --- | --- |
| MTALAVAPASAACAIAAEAIHCAAMDTASAADEALMLAYGAEGDMDAFDALYARHRAGLYRYILRSARNAAQADDIFQETWSRVIDARARYRPQARFTTWLLQIAHNLLVDAHRRQPAPVAPEQAEAALASVPAAEHEQPEARLSEFQQRRRLQLAIERLPDEQRLAMLLRLEHDLDVEEIAQVTGVSRETVKSRLRYATRRIREELSSESAPRSP | not soluble |
| MAHHHHHHMGQSNGAALAKDTIASEQFLKYQEARHRIVHRAFVKCVVPSSKGKDDGYDLTPEERVCVEEFAILYAGFAKKEFLHFSSLYEQYQRDQYEKMRLEVMQQQARKDIQH | not soluble |
| MSYSIVRVSKVKSGTNTTGIQKHVQRENNNYENEDIDHSKTYLNYDLVNANKQNFNNLIDEKIEQNYTGKRKIRTDAIKHIDGLITSDNDFFDNQTPEDTKQFFEYAKEFLEQEYGKDNLLYATVHMDEKTPHMHYGVVPITDDGRLSAKEVVGNKKALTAFQDRFNEHVKQRGYDLERGQSRQVTNAKHEQISQYKQKTEYHKQEYERESQKTDHIKQKNDKLMQEYQKSLNTLKKPINVPYEQETEKVGGLFSKEIQETGNVVISQKDFNEFQKQIKAAQDISEDYEYIKSGRALDDKDKEIREKDDLLNKAVERIENADDNFNQLYENAKPLKENIEIALKLLKILLKELERVLGRNTFAERVNKLTEDEPKLNGLAGNLDKKMNPELYSEQEQQQEQQKNQKRDRGMHLLEHHHHHH | soluble |
| MGSDKIHHHHHHVSDTVDHNAWKTTGVVVIQNDVLTLAGSNARALLNDGKGYTNFELDMDVRTTTGGKGYIGIHTDATDRKGYRIALNNDREDPVWWRMTGSLVSVRNLTKSFVKENEWFKMNIRVEGRLIRVRINGETVVEYIEPSKPFRLKENAKALLSQGTISLVGTGRGNLQFKNISLEAFSAKGIDIPAQWANAVDEQTDEIIRLHQEDFPVLDYHVHLKGGLTKEVAARQSRQTGVNYGLAINCGIGFSITNDTELYNYLDTMRTQPFILAMQAEGREWVTTFSEAARNSFDYVFTDAMTFLDHKGRRTHLWVNKEVIIDDEQAYMDMMLDRICSVLEEPVDMYVNSCFLPDAMSDRYDMFWTEERIDRFVNALAKSGKALEINELYHIPNKAIIQKAKAAGVKFTFGSNNITPEVGTLDYCIRMKKECGLTAQDMYKPHINI | not soluble |
| MKKDILEKGAILQRDRETYAIAPHIPGGITDTATLRKLCDVADKYGVKELKLTSAQRIALFGVKEEDLDAIWSDLDQQPGAAIGLCVRSVKICPGTTWCKRGVQDSVSLGLKIDAIYHAMELPNKMKMGISGCMLNCAETMLKDVGVVGTPKGWRIYVGGNAGARPRIGDLLVELGPDEDKVLAVIADLVEWYRSSGSEQRLGRVVEQMGFDAFKTAVLGAKATP | not soluble |
| MRTIERTTIFKRDFKREMKGQHRHLLDTDLRKVIAALANDQPLEIRYRDHALTGNWSNYRDCHIRPDLVLIYRLIGQDRLVLVRLGSHSQLDL | not soluble |
| MGSDKIHHHHHHMDAIDLKRLSDFVRHRQNEDGGFAFCKPLPSTLAETFYAVSILTSIGEDVPRREKVVEFLKSRIQTEINSLFYTLHSLNLLGEDLPDYSSFLLKRLEGLKAERKYLLSDGGVTATYTFLQPNALRDAYMISTLLHLYNRDVPEETKMLVRRYRRETEFGVGYGVKKPNLEETFYASYILRDKAVISFVKSFESNGGFAKQPGGYPPYLEDTYYATSTLSLLSQRYSNPRTAEFIASLQNANGGFRRSIHGGISTLEDSYYAVEVLRRLEFR | not soluble |
| AKTKAAVSMEGFSWGNYINSNSFIAAPVTCFKHAPMGTCWGDISENVRVEVPNTDCSLPTKVFWIAGIVKLAGYNALLRYEGFENDSGLDFWCNICGSDIHPVGWCAASGKPLVPPRTIQHKYTNWKAFLVKRLTGAKTLPPDFSQKVSESMQYPFKPCMRVEVVDKRHLCRTRVAVVESVIGGRLRLVYEESEDRTDDFWCHMHSPLIHHIGWSRSIGHRFKRSDITKKQDGHFDTPPHLFAKVKEVDQSGEWFKEGMKLEAIDPLNLSTICVATIRKVLADGFLMIGIDGSEAADGSDWFCYHATSPSIFPVGFCEINMIELTPPRGYTKLPFKWFDYLRETGSIAAPVKLFNKDVPNHGFRVGMKLEAVDLMEPRLICVATVTRIIHRLLRIHFDGWEEEYDQWVDCESPDLYPVGWCQLTGYQLQPPASQSSR | soluble |
| MKFSIIVPSYNSEKYIAELLNSLQNQSYDKKDFEVILVDDCSSDNTLNVVEAYKNKLNLIIKQLDTNSGGPGKPRNTALQLAQGEYVFFVDSDDYINKDTLKDVSKFVDQNHADVVLVKMEGVNGRGVPKSMFKETSDAVTLANSRIIYTLSPTKFYRTSLLRDHAIEFPEDLRSAEDQLFTMKAYVNAKRIAVLADKPYYYATKREGEHMSSAYVSPEDFYKVMSLITEEILNSPLENKNEVLGYFIDRHFSFSRTNNFSLKIADDKKEAWMDALGDFIQKVPTVVDELVNDSFKPLLHYARLKDMKHYQMVEESYKNGKFHSYSAQEGTLKIQFDEGEPYFVFKKLVKPDIRMSHFEFNDQGFELELEFISSIINPNHVASMIQLKLLSRNKKEFIYIPLTMNDQTRFKFKADLNDLMPYLIKEKVWDAHLEMRVDNMTIEKRIGNKRVKYPYSKETSTITQYNNQYYRFTPYFTKDFDNLSFYITSNKLNEMLAVEIKDKQTIQLRSLEFNYILSEGMTAVILPHMFTYGYLTSVTTKDTLTYHLSVGEKVKDKDLKKNFKIETPHLVLKYLEHHHHHH | soluble |
| MRGSHHHHHHTDPLPRLPVPPLQQSLDHYLKALQPIVSEEEWAHTKQLVDEFQASGGVGERLQKGLERRARKTENWLSEWWLKTAYLQYRQPVVIYSSPGVMLPKQDFVDLQGQLRFAAKLIEGVLDFKVMIDNETLPVEYLGGKPLCMNQYYQILSSCRVPGPKQDTVSNFSKTKKPPTHITVVHNYQFFELDVYHSDGTPLTADQIFVQLEKIWNSSLQTNKEPVGILTSNHRNSWAKAYNTLIKDKVNRDSVRSIQKSIFTVCLDATMPRVSEDVYRSHVAGQMLHGGGSRLNSGNRWFDKTLQFIVAEDGSCGLVYEHAAAEGPPIVTLLDYVIEYTKKPELVRSPMVPLPMPKKLRFNITPEIKSDIEKAKQNLSIMIQDLDITVMVFHHFGKDFPKSEKLSPDAFIQMALQLAYYRIYGQACATYESASLRMFHLGRTDTIRSASMDSLTFVKAMDDSSVTEHQKVELLRKAVQAHRGYTDRAIRGEAFDRHLLGLKLQAIEDLVSTPDIFMDTSYAIAMHFHLSTSQVPAKTDCVMFFGPVVPDGYGVCYNPMEAHINFSLSAYNSCAETNAARLAHYLEKALLDMRALLQSHPRAKLISEEDLSLISG | soluble |
| REGMNTIARNLGITCSADIGLISIEYTCFSNNLSYTQVLSLPKTGVNTDKLDQMERFVKEFGNDCSSLTIRQIHNKLDTVQRK | not soluble |
| MDIDMNYPSITTLMSNESANLLIIWGNATPDISYLSYTTNPMLGDYVLNVSAINGCTEELIATHLVPTLENATQWVYDAGEYWDNYSFTDESTPLPGLSWPFNE | not soluble |
| MGSDKIHHHHHHMIYKMTDKDMEILFERISKDFQSFGSKEENGDIVFGDIQRFSDISEEKSSYPPKDFLIERSENILSIPRAEKRAVFGVKSCDLRGFYIMDKQILGKDPFYTVKRENTMFINFVCEKMCSGGFCTSFGGPVLDEYDVQVLHKNGYFYVEASDKYEKYLFGFSESDDQNVFEEHKKEFESLYGRLNVDGIENRMKWSSNLWNKFANYCISCGACNYSCPTCYCVDVYDDDDGRKKEWDSCILEGFTRTAAGNVRPELSERLRQRFYHKFKYYKLSRGAYLCTGCNRCVDDCPVDIDIKEVITHDYDRE | not soluble |
| MGYHTFDAGRADKLEDAQERYRSLSAEELCWALSASSDETVADLGSGTGFYTDDVAPAVDHVYAVDIQEAMHDYYRKKGVPDNVDLVTSAVDDLPFDTSSLDAAFSTMTYHEFASDGALREVARVLKPGGTFAIADWAASGSGRNGPPVDERFSAAEATDALRQHGFTVEFEAVRPETFLLVVSADLEHHHHHH | soluble |
| MSLVKPKYQRVVLKLSGEALAGEDGFGIKPPVIKEIVQEIKEVHELGIEMAIVVGGGNIWRGQIGAQMGMERAQADYMGMLATVMNALALQDTLENLGVPTRVQTSIEMRQIAEPYIRRRAERHLEKGRVVIFAGGTGNPYFSTDTTAALRAAEVDADVILMAKNNVDGVYSADPRVDETATKFEELTHLDVISKGLQVMDSTASSLSMDNDIPLVVFNLNEAGNIRRAILGENIGTTVRGKEGHHHHHH | soluble |
